Assay results from the supplement of paper PMC9732359.
± gives the uncertainty stated by the source.

Assay: protein stability index of a GFP-peptide fusion (yeast GPS) (PSI 1-4); higher = more stable; sorted into four equal gates, so the index is relative within each strain
How it was run: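 Tiled yeast protein peptides of 17 residues were each joined downstream of GFP, on plasmids that also express Cherry. The pooled library was maintained in yeast, and mid-log cultures in leucine-free medium were sorted into four equal gates on the GFP/Cherry ratio. Plasmids from every gate were amplified by PCR and sequenced on Illumina, with barcodes linking reads to strains. The protein stability index of a peptide is its gate-number-weighted read frequency summed over the gates.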

Sequence | protein stability index (doa10∆) | protein stability index (pdr5∆) | protein stability index (san1∆) | protein stability index (ubr1∆)
AAASLPSKKLKTEDGFV [RPC82] | 3.21 ± 0.1 | 3.09 ± 0.1 | 2.84 ± 0.091 | 3.04 ± 0.065
AACEKLLPPIKIELIKN [RPN12] | 1.98 ± 0.19 | 2.25 ± 0.094 | 2.44 ± 0.098 | 1.99 ± 0.072
AADTSIVEQDKSMELFY [YJL039C/NUP192] | 2.07 ± 0.11 | 2.61 ± 0.13 | 2.63 ± 0.084 | 2.73 ± 0.2
AAESKKYRQTKLSKEER [RPL5] | 3.1 ± 0.23 |  | 3.05 ± 0.22 | 3.06 ± 0.26
AAPAATSAASGDAAPAE [RPP0] | 2.6 ± 0.091 | 2.38 ± 0.049 | 1.6 ± 0.1 | 2.42 ± 0.063
AAPLLALLRENQDSVKT [RPN2] | 2.55 ± 0.18 | 3.23 ± 0.1 | 3 ± 0.15 | 2.6 ± 0.11
AARHRARFRSIHILKVA [RPL20A] | 1.22 ± 0.077 | 1.18 ± 0.042 | 1.22 ± 0.11 | 1.1 ± 0.059
AASFKKLYKTPIPIPAF [PRE10] | 2.54 ± 0.14 | 3.15 ± 0.12 | 2.75 ± 0.079 | 3 ± 0.12
AASSQVSIVKLDTQLIT [SNF12] | 1.69 ± 0.08 | 1.74 ± 0.07 | 1.64 ± 0.16 | 2.02 ± 0.11
AASVIGMLVALGRLSVR [RPC82] |  | 1.32 ± 0.07 | 1.11 ± 0.23 | 1.24 ± 0.097
AAVIMRCKIYFFYLRIS [PCI8] | 1.33 ± 0.067 | 1.35 ± 0.06 | 1.15 ± 0.11 | 1.09 ± 0.088
AAVVKTSSRQTVFLPMV [RPT5] | 3.02 ± 0.051 | 3.15 ± 0.056 | 2.97 ± 0.051 | 2.87 ± 0.061
ADDADIEMKDVSSKPSK [MED1] | 3.17 ± 0.1 | 3.29 ± 0.11 | 2.95 ± 0.065 | 3.26 ± 0.066
ADDHASVQINVAKVDEE [RPS21A] | 3.26 ± 0.062 | 3.08 ± 0.072 | 3.13 ± 0.045 | 3.26 ± 0.04
ADEMGLGKTIQTISLLT [SNF2] | 1.73 ± 0.092 | 2.5 ± 0.086 | 2.46 ± 0.08 | 2.41 ± 0.075
ADKIVDEFPELKEPVED [NUT2] | 3.71 ± 0.15 | 3.52 ± 0.11 | 3.23 ± 0.27 | 3.63 ± 0.14
ADKRGVLTGGYLDQHKR [SMC3] | 2.46 ± 0.11 | 2.54 ± 0.1 | 2.72 ± 0.074 | 2.94 ± 0.052
ADKSLPSSMATLLKNLR [YJR042W/NUP85] | 2.97 ± 0.081 | 2.81 ± 0.077 | 2.87 ± 0.054 | 2.86 ± 0.057
ADLERFFLSIYFFYASR [YJL039C/NUP192] | 1.68 ± 0.073 | 1.12 ± 0.13 | 1.22 ± 0.12 | 1.55 ± 0.072
ADLKKGKDLSPAINYTK [QCR2] | 3.26 ± 0.13 | 3.36 ± 0.08 | 3.32 ± 0.086 | 3.23 ± 0.065
ADLRPLQIKSIREIDVT [RPS7B] |  | 2.72 ± 0.26 | 2.53 ± 0.23 | 2.88 ± 0.1
AEKKIPLVIRRYLPDGS [RPO26] | 2.79 ± 0.09 | 2.54 ± 0.12 | 3.45 ± 0.066 | 
AELKLAGEFGLKNKREI [RPS9B] | 3.08 ± 0.11 | 3.21 ± 0.15 | 3.2 ± 0.18 | 3.21 ± 0.12
AEQFKHQHGDKVDIFEI [FAS2] |  |  |  | 3.06 ± 0.21
AETIILSSAGKNSSVSS [SRB5] | 1.65 ± 0.063 | 2.17 ± 0.051 | 2.06 ± 0.083 | 1.89 ± 0.075
AEVNGGDDEATEIISTL [BRR2] | 3.33 ± 0.094 | 3.1 ± 0.13 | 3.43 ± 0.095 | 3.11 ± 0.21

Sequence | protein stability index (doa10∆) | protein stability index (pdr5∆) | protein stability index (san1∆) | protein stability index (ubr1∆)
AEWSLVRIYSGLLKRGD [SNU114] | 2.95 ± 0.093 | 3.27 ± 0.1 | 3.26 ± 0.079 | 3.29 ± 0.12
AEYAQLLAKRLSERKAE [RPS6A] | 2.41 ± 0.051 | 2.11 ± 0.048 | 2.16 ± 0.082 | 2.28 ± 0.038
AFADRLGQYVQAHTLYN [PRE10] | 2.22 ± 0.085 | 1.95 ± 0.066 | 1.74 ± 0.12 | 2.03 ± 0.11
AFAFCIPVYCFSHPAHQ [YCG1] | 1.64 ± 0.045 | 1.81 ± 0.044 | 1.76 ± 0.059 | 1.81 ± 0.045
AFGFVDRTLPHFSKDDY [RPO21] | 2.81 ± 0.068 | 3.17 ± 0.05 | 2.85 ± 0.052 | 3.16 ± 0.035
AFGGLNFGGGNNTTPSS [YJL041W/NSP1] | 1.32 ± 0.061 | 1.29 ± 0.064 | 1.46 ± 0.087 | 1.21 ± 0.13
AFIFGLQDELKELQLEK [SMC3] | 3.23 ± 0.12 | 3.47 ± 0.11 | 3.11 ± 0.12 | 3.54 ± 0.19
AFLSFLAYRNYWTQYLG [YJL039C/NUP192] | 1.33 ± 0.057 | 1.26 ± 0.04 | 1.26 ± 0.11 | 1.26 ± 0.068
AFSSVEHIIRDVHNGYI [COB] | 3.16 ± 0.23 | 3 ± 0.26 | 3.37 ± 0.24 | 2.99 ± 0.16
AFVEFGASVIAGGQRIV [SWP82] | 2.21 ± 0.13 | 2.35 ± 0.1 | 2.02 ± 0.1 | 2.07 ± 0.085
AGAGEANGTVVSFIKNG [MTR3] | 1.79 ± 0.16 | 2.53 ± 0.2 |  | 2.21 ± 0.11
AGALNLASPEVKVHMDS [DIS3] | 3.06 ± 0.083 | 3.4 ± 0.069 | 2.99 ± 0.07 | 3.04 ± 0.052
AGASPMVNTQQPIVTGT [PRE4] | 2.67 ± 0.17 | 2.67 ± 0.29 |  | 
AGGGESDSALILMYKGF [UBP6] | 3.29 ± 0.091 | 3.45 ± 0.08 | 3.26 ± 0.12 | 3.35 ± 0.063
AGKFPTPVSHNDDLYGK [RPL1A] | 2.26 ± 0.041 | 2.62 ± 0.056 | 2.21 ± 0.057 | 2.45 ± 0.043
AGKSLVSKSEPKFFLGE [QCR2] | 3.41 ± 0.09 | 3.31 ± 0.067 | 3.08 ± 0.054 | 3.32 ± 0.047
AGLEITSDNLLTITKAA [RPP1B] | 2.42 ± 0.051 | 2.55 ± 0.048 | 2.78 ± 0.064 | 2.65 ± 0.046
AGMTTIVRDLDRPGSKF [RPL3] | 2.39 ± 0.11 | 3.24 ± 0.18 | 2.95 ± 0.08 | 3.15 ± 0.11
AGNSQITSGGFLLKAYI [SRB5] | 2.11 ± 0.1 | 2.53 ± 0.097 | 2.24 ± 0.17 | 2.92 ± 0.11
AHAIDQMTWRQWLNNAL [POP8] | 2.67 ± 0.065 | 2.6 ± 0.046 | 2.41 ± 0.055 | 2.58 ± 0.04
AHIEKQSLDTIGGSDAA [RPO21] | 3.18 ± 0.097 | 3.25 ± 0.11 | 3.32 ± 0.12 | 2.95 ± 0.095
AHLWQKIHESIVFDICQ [PRP8] | 2.56 ± 0.09 | 2.69 ± 0.11 | 2.27 ± 0.13 | 2.39 ± 0.098
AIFPYQDPIFGSVLLTL [ECM29] | 1.69 ± 0.045 | 1.84 ± 0.057 | 1.29 ± 0.12 | 1.45 ± 0.044
AIIYQRGKDGKLHVAAK [YGL100W/SEH1] | 3.25 ± 0.12 | 3.31 ± 0.1 | 2.9 ± 0.13 | 3.02 ± 0.18
AIKDKLEQDLHFENAKV [YIL149C/MLP2] | 3.09 ± 0.066 | 3.29 ± 0.075 | 3.35 ± 0.069 | 3.16 ± 0.079
